Patent US20240092891A1
Like-named read-outs stand apart in the source and are kept apart here.

Legend:
Assay in all cases: flow cytometry on human CLDN18.1-HEK293 cells, antibody at 100 µg/mL
human CLDN18.1 (human) [1] = biological target: human CLDN18.1 (human) (UniProt P56856)
human CLDN18.1 (human) [2] = biological target: human CLDN18.1 (human) (UniProt P56856); remark: listed apart in the source
human CLDN18.1 (human) [3] = biological target: human CLDN18.1 (human) (UniProt P56856); remark: listed apart in the source

human CLDN18.1 (human), sequence (P56856 whole entry): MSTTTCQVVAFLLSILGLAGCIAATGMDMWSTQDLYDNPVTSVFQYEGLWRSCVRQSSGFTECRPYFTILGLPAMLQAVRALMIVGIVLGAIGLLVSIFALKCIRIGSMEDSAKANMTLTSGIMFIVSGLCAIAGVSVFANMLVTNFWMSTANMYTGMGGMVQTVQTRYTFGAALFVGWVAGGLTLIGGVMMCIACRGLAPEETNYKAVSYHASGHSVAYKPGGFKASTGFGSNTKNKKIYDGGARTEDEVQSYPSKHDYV

- positive rate of cell binding (human CLDN18.1 (human) [1]): 0.851%
- positive rate of cell binding (human CLDN18.1 (human) [2]): 0.067%
- positive rate of cell binding (human CLDN18.1 (human) [3]): 0.049%
Substance: irrelevant control hIgG1 (antibody)
